Earlier results, collected in paper PMC12990809.

Experiments:
Assay in all cases: pulldown
Details in all cases: 20 nM protein, 1.5 uM RNA pool; 20 mM HEPES pH 7.8, 70 mM KCl, 10 mM NaCl, 10% glycerol, 2 mM DTT, 0.1 ug/uL BSA; 30 min, 4 C (protocol of this paper; not …); cited from earlier work
[1] = target: PCBP1 (Homo sapiens) (UniProt Q15365)
[2] = target: T1, A2BP1 (Homo sapiens) (UniProt Q9NWB1)
T1 sequence: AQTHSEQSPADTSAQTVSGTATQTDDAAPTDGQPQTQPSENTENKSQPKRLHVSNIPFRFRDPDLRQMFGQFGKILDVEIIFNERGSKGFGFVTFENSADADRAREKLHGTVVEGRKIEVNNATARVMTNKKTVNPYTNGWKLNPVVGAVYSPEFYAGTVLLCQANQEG

[3] = target: PABPC5 (Homo sapiens) (UniProt Q96DU9)
[4] = target: T2, asd-1 (Caenorhabditis elegans) (UniProt A1BPT6)
T2 sequence: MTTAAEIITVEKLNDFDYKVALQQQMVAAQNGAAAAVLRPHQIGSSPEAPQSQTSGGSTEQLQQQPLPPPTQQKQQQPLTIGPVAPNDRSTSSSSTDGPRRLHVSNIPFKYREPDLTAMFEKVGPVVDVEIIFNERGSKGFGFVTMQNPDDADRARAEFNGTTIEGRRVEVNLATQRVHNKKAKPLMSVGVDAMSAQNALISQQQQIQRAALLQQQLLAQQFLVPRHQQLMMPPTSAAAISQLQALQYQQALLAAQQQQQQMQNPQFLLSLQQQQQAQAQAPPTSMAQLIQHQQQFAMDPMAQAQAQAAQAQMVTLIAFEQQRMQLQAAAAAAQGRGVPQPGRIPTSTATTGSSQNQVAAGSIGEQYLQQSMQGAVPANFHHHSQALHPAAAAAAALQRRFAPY

[5] = target: IGF2BP3 (Homo sapiens) (UniProt O00425)
[6] = target: T3, PF10_0068 (Plasmodium falciparum) (UniProt Q8IJX3)
T3 sequence: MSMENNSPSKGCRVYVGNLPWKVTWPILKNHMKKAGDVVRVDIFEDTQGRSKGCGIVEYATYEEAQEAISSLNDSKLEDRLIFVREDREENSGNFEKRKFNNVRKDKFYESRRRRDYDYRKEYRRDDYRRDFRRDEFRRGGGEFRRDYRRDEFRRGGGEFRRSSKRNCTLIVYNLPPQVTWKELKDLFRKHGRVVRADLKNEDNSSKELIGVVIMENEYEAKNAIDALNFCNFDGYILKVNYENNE

[7] = target: T4, exc-7 (Caenorhabditis elegans) (UniProt Q20084)
T4 sequence: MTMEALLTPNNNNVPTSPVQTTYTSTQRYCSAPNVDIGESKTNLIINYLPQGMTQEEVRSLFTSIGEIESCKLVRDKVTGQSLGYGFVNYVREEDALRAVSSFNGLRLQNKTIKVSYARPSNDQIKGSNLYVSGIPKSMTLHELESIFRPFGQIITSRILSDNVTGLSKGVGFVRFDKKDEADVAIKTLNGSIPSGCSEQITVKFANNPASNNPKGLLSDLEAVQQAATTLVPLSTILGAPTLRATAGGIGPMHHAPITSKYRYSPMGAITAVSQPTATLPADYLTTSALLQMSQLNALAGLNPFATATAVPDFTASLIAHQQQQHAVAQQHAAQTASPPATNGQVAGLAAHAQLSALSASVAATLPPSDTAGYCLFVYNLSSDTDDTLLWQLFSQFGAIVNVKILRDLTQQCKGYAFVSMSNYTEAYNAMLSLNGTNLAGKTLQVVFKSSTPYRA

[8] = target: T5, mec-8 (Caenorhabditis elegans) (UniProt G5ECJ4)
T5 sequence: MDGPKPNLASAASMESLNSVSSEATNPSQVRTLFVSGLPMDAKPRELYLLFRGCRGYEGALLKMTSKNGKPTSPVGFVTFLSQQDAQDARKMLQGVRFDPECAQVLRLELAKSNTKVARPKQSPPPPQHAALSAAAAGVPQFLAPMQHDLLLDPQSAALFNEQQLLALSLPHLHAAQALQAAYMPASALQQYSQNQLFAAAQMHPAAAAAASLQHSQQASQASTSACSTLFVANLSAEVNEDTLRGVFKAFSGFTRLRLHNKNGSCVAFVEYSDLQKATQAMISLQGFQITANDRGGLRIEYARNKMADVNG

[9] = target: T6, MAL8P1.40 (Plasmodium falciparum) (UniProt Q8IB66)
T6 sequence: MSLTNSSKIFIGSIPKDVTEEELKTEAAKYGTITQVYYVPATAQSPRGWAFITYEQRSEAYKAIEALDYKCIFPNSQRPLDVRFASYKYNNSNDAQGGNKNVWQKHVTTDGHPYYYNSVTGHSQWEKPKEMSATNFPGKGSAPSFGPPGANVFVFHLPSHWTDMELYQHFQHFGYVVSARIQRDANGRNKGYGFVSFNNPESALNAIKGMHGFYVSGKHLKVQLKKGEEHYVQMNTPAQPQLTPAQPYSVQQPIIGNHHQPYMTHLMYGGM

[10] = target: T7, RBM24 (Homo sapiens) (UniProt Q9BX46)
T7 sequence: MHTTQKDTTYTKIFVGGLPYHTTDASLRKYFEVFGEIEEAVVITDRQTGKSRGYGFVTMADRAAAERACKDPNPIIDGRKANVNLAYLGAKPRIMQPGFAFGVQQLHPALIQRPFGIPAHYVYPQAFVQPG

[11] = target: T8, etr-1 (Caenorhabditis elegans) (UniProt A8DYS0)
T8 sequence: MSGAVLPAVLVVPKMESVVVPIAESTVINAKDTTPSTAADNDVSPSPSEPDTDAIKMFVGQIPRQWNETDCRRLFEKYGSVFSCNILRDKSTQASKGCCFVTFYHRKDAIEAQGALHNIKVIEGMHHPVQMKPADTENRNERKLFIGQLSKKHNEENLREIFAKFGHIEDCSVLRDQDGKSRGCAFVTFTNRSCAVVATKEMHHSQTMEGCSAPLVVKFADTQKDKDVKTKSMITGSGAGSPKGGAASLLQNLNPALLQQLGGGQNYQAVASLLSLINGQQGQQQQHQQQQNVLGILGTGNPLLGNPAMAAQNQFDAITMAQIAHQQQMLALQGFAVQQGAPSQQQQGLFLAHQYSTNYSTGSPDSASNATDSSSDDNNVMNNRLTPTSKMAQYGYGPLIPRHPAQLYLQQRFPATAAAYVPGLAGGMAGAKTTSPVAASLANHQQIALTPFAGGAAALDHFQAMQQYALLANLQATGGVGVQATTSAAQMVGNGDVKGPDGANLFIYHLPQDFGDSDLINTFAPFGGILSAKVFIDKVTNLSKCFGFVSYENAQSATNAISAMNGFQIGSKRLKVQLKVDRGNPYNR

[12] = target: KHDRBS1 (Homo sapiens) (UniProt Q07666)
[13] = target: HNRNPCL1 (Homo sapiens) (UniProt O60812)
[14] = target: T9, KHDRBS2 (Homo sapiens) (UniProt Q5VWX1)
T9 sequence: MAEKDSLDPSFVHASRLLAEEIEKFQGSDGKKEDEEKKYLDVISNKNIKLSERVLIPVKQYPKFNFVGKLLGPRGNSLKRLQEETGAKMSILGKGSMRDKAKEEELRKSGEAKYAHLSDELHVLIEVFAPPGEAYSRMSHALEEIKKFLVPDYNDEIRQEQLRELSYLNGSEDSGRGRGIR

[15] = target: CELF6 (Homo sapiens) (UniProt Q96J87)
[16] = target: T10, HNRNPLL (Homo sapiens) (UniProt Q8WVV9)
T10 sequence: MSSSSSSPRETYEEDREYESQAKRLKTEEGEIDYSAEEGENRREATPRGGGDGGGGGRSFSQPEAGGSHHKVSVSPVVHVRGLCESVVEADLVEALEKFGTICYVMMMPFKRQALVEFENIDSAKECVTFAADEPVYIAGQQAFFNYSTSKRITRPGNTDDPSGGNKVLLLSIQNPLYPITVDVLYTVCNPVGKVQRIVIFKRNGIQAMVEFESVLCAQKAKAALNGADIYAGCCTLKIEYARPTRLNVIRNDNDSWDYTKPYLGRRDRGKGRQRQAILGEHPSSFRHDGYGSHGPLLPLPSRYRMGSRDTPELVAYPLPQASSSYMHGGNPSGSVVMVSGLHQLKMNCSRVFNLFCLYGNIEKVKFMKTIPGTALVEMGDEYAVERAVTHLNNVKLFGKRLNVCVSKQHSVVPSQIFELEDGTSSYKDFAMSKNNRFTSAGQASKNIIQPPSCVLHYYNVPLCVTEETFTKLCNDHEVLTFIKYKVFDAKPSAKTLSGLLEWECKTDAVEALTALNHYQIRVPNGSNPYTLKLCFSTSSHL

[17] = target: CELF5 (Homo sapiens) (UniProt Q8N6W0)
[18] = target: T11, sup-12 (Caenorhabditis elegans) (UniProt O45189)
T11 sequence: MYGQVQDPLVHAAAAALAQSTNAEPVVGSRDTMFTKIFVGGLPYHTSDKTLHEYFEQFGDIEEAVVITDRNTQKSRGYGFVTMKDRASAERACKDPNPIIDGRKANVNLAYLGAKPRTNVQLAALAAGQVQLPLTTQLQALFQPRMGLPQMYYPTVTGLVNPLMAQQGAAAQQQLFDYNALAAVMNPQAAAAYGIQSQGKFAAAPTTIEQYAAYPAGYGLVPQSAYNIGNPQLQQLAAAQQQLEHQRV

[19] = target: T12, sup-26 (Caenorhabditis elegans) (UniProt D5MCR3)
T12 sequence: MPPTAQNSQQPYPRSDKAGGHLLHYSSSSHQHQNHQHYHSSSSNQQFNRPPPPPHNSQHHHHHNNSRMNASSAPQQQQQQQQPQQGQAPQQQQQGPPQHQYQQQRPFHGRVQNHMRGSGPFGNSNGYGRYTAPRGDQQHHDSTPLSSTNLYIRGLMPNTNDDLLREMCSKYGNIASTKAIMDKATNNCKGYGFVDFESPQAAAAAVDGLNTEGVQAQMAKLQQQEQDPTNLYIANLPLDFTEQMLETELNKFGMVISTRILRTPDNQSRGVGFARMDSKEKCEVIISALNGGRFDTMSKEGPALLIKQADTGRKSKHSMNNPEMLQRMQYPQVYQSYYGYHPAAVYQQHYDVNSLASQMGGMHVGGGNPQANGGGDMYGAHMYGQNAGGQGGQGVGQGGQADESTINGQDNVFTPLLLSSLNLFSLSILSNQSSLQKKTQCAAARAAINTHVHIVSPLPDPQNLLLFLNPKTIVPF

[20] = target: T13, DAZAP1 (Homo sapiens) (UniProt Q96EP5)
T13 sequence: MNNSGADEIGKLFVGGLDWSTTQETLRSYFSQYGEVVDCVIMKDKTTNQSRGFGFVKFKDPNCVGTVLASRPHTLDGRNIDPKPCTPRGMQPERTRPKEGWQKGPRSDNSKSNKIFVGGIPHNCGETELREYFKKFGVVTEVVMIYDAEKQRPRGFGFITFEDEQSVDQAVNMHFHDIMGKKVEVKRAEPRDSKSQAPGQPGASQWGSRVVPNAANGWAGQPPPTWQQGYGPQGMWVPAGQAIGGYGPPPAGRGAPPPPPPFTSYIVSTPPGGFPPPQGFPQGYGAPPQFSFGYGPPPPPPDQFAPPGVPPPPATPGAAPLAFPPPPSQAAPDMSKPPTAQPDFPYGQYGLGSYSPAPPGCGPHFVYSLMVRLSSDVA

Chain of KHDRBS1 (Homo sapiens) (Q07666 107-291): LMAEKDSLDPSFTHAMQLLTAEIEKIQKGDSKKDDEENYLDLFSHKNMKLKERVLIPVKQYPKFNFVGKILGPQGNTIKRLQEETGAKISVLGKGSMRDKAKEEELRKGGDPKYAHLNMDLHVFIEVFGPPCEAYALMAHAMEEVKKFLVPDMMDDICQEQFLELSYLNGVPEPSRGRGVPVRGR
Chain of CELF6 (Homo sapiens) (Q96J87 whole entry): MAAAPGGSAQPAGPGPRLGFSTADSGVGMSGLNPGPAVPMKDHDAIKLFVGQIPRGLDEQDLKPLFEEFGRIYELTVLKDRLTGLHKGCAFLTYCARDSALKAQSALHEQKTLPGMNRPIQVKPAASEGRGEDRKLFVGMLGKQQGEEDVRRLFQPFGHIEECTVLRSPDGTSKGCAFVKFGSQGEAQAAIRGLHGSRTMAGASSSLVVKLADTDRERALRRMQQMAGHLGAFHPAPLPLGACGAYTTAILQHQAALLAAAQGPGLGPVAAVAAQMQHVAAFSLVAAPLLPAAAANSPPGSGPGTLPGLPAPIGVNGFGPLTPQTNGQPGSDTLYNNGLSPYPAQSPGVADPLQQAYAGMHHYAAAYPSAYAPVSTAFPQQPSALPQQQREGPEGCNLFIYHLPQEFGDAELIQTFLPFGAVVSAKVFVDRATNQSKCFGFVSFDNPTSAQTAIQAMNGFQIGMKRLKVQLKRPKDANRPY
Chain of CELF5 (Homo sapiens) (Q8N6W0 whole entry): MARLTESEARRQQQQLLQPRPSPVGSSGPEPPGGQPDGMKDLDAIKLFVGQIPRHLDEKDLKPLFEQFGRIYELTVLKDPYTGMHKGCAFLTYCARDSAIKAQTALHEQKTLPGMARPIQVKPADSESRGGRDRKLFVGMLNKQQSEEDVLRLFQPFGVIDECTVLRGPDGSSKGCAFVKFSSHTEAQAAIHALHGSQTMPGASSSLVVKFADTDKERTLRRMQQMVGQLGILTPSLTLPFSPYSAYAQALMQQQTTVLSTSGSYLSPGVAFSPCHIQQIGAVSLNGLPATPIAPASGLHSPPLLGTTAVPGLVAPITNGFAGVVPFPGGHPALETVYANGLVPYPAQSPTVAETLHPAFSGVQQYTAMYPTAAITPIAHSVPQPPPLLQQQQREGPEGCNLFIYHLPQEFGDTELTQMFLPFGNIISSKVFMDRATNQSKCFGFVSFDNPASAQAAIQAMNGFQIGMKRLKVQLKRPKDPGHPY
Chain of PCBP1 (Homo sapiens) (Q15365 whole entry): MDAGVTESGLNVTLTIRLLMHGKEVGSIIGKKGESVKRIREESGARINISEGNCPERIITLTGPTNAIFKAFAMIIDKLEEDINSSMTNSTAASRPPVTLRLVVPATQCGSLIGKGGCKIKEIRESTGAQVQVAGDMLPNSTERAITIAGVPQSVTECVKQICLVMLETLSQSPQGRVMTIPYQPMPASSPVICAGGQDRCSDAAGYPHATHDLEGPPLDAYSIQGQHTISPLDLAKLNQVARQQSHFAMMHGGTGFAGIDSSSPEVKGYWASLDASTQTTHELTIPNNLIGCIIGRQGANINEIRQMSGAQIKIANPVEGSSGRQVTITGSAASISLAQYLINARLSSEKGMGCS
Chain of IGF2BP3 (Homo sapiens) (O00425 whole entry): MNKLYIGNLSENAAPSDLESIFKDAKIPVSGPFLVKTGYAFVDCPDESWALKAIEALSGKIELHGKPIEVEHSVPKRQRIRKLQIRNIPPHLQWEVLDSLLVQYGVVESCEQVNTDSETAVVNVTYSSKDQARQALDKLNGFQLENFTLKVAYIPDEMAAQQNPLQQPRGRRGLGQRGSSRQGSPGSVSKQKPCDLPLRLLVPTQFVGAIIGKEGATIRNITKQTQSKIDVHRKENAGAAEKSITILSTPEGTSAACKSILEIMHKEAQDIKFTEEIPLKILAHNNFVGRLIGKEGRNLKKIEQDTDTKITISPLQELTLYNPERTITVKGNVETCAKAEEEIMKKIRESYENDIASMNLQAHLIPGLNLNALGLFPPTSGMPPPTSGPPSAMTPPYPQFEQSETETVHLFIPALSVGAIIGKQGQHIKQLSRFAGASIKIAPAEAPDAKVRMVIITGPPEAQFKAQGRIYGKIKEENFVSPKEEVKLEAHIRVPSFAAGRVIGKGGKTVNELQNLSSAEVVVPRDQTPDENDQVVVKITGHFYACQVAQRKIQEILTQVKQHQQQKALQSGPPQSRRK
Chain of PABPC5 (Homo sapiens) (Q96DU9 whole entry): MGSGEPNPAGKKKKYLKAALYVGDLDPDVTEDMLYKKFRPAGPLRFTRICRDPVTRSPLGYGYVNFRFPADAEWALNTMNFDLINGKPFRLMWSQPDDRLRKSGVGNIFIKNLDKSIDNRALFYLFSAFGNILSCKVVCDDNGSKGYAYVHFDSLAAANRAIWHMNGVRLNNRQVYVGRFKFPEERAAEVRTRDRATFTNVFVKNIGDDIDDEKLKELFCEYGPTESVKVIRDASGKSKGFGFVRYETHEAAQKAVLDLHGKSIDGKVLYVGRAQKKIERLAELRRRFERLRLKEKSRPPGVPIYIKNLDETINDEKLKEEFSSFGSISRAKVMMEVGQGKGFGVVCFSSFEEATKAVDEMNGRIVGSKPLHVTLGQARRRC
Chain of HNRNPCL1 (Homo sapiens) (O60812 1-131): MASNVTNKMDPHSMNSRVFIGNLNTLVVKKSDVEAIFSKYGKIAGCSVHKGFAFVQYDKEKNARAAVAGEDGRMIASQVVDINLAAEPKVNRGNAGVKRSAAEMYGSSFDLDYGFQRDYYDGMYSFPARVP

Substance: CCNANCC [RNAcompete motif RNCMPT00186]
- binding signal (z-score (mean of top ten 7-mers)) [1]: 6.42

Substance: UGCAUG [RNAcompete motif RNCMPT00168]
- binding signal (z-score (mean of top ten 7-mers)) [2]: 23.3

Substance: AGAAANU [RNAcompete motif RNCMPT00171]
- binding signal (z-score (mean of top ten 7-mers)) [3]: 7.11

Substance: UGCAUGA [RNAcompete motif RNCMPT00180]
- binding signal (z-score (mean of top ten 7-mers)) [4]: 20.3

Substance: AACAA [RNAcompete motif RNCMPT00172]
- binding signal (z-score (mean of top ten 7-mers)) [5]: 6.02

Substance: GGAGGA [RNAcompete motif RNCMPT00199]
- binding signal (z-score (mean of top ten 7-mers)) [6]: 8.55

Substance: UUAAGUU [RNAcompete motif RNCMPT00014]
- binding signal (z-score (mean of top ten 7-mers)) [7]: 13.7

Substance: AGCACA [RNAcompete motif RNCMPT00181]
- binding signal (z-score (mean of top ten 7-mers)) [8]: 8.36

Substance: AUACAUG [RNAcompete motif RNCMPT00197]
- binding signal (z-score (mean of top ten 7-mers)) [9]: 14.8

Substance: GUGUGA [RNAcompete motif RNCMPT00184]
- binding signal (z-score (mean of top ten 7-mers)) [10]: 10.6

Substance: GUGUGUU [RNAcompete motif RNCMPT00183]
- binding signal (z-score (mean of top ten 7-mers)) [11]: 8.98

Substance: AUAAAAG [RNAcompete motif RNCMPT00169]
- binding signal (z-score (mean of top ten 7-mers)) [12]: 9.86

Substance: UUUUUU [RNAcompete motif RNCMPT00167]
- binding signal (z-score (mean of top ten 7-mers)) [13]: 18.4

Substance: AUAAA [RNAcompete motif RNCMPT00185]
- binding signal (z-score (mean of top ten 7-mers)) [14]: 8.2

Substance: UGUGGUG [RNAcompete motif RNCMPT00187]
- binding signal (z-score (mean of top ten 7-mers)) [15]: 7.27

Substance: ACANACA [RNAcompete motif RNCMPT00178]
- binding signal (z-score (mean of top ten 7-mers)) [16]: 9.56

Substance: GUGUGUG [RNAcompete motif RNCMPT00166]
- binding signal (z-score (mean of top ten 7-mers)) [17]: 9.48

Substance: UGUGUG [RNAcompete motif RNCMPT00416]
- binding signal (z-score (mean of top ten 7-mers)) [18]: 10.8

Substance: UAUAUA [RNAcompete motif RNCMPT00182]
- binding signal (z-score (mean of top ten 7-mers)) [19]: 6.85

Substance: UAGGUAG [RNAcompete motif RNCMPT00013]
- binding signal (z-score (mean of top ten 7-mers)) [20]: 7.92
